Test results reported in paper PMC8246471.

Target: PriA helicase (UniProt P17888 1-732)
Test: ATPase DNA titration

PriA helicase, sequence (P17888 whole entry): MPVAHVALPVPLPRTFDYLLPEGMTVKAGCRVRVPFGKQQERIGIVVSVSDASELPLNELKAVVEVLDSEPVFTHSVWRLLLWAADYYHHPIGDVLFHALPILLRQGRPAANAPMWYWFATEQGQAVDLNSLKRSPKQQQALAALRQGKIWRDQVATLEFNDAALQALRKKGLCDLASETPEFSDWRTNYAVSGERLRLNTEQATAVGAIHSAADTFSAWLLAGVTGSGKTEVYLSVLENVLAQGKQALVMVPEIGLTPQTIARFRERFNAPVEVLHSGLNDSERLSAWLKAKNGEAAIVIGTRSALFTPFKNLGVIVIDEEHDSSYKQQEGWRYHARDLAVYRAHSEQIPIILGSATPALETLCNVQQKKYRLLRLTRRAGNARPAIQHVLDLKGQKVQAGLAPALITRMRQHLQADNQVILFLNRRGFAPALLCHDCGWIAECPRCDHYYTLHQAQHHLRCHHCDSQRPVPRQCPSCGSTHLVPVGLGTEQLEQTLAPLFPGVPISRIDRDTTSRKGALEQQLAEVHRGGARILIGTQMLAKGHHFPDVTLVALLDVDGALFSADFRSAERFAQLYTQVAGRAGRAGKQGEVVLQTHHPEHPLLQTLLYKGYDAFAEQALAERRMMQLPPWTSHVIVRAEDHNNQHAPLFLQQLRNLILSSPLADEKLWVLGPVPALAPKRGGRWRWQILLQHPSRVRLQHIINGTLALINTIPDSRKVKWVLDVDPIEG

B1: Fork 1 (mixed)
DNA 1: CTAGAGACGCTGCCGAATTCTGGCTTGGATCTGATGCTGTCTAGAGGCCTCCACTATGAAATCGCTGCA
DNA 2: CCGGGCTGCAGAGCTCATAGATCGATAGTCTCTAGACAGCATCAGATCCAAGCCAGAATTCGGCAGCGTCT
apparent K (half saturation): 5.7 ± 0.7 nM
